The record followed here is article PMC5725882.

The target of assay [1] is Np97 (N domain alone of wild-type p97) (UniProt P55072). The experiment in a line: ITC; VIMPx titrated into p97; iTC200, 25 C; 50 mM Tris pH 8.0, 150 mM NaCl, 2 mM MgCl2, 5% glycerol; no nucleotide added; one-site model. (In general: In ITC the heat of successive injections is recorded.)
The target of assay [2] is full-length wild-type p97 (^FLp97^wt) (UniProt P55072). The experiment in a line: GST pull-down. The following applies: 2 mM AMP-PNP; n=3; parent: est. 1.0; read off a plot.
The target of assay [3] is VIMP of canine pancreas microsomes (dog (endogenous in canine pancreas microsomes)). Kind of assay: co-IP; immunodepletion: canine pancreas microsomes solubilized in 1% deoxyBigCHAP, supernatant incubated three times with Protein A beads containing anti-VIMP antibodies; unbound fractions immunoblotted. On the technique in general: In western blotting, separated proteins are transferred to a membrane and probed.

Chain of full-length wild-type p97 (^FLp97^wt) (P55072 whole entry): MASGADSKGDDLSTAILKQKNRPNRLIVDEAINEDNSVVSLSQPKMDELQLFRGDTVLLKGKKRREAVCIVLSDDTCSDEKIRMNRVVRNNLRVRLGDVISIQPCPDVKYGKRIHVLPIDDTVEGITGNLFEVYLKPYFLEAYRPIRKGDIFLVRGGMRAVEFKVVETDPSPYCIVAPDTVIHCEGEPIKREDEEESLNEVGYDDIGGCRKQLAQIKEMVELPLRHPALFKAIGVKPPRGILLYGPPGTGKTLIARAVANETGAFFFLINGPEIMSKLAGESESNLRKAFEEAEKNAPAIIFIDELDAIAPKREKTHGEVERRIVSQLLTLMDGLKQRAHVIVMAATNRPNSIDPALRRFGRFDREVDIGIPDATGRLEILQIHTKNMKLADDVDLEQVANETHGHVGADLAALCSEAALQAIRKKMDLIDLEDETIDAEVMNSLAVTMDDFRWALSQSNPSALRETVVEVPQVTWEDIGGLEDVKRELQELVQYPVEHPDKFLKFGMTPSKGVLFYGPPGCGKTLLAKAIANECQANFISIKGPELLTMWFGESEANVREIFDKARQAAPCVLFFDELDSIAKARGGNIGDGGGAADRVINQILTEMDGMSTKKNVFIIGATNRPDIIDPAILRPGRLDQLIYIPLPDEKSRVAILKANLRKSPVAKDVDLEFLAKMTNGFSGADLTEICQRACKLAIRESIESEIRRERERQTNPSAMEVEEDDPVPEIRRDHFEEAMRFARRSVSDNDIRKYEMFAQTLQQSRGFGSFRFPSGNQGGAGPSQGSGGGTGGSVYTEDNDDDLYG
Chain of Np97 (N domain alone of wild-type p97) (P55072 whole entry): as above

As a reminder, the Kd is the concentration at which binding is half-saturated. A low value points to higher affinity. As a reminder, the stoichiometry N is a count of units in the complex or per binding partner. In assay [1], “VIMPx (VCP-interacting membrane protein, residues 49-122) (from UniProt Q9BQE4 49-122) (domain or fragment)” yielded a Kd of 6.58 µM and a stoichiometry N of 1.27. As for GST-tagged VIMP-N10 Q79A, the ratio to parent in assay [2] came out at 0.87. Same read-out and setting: the value for GST-tagged VIMP-N10 V97A was 0.04.

For the substance GST-tagged VIMP-N10 L82A, the ratio to parent in assay [2] is 0.14. Same read-out and setting: the value for GST-tagged VIMP-N10 R78A was 0.24; that for GST-tagged VIMP-N10 R86A was 0.07.

As for GST-tagged VIMP-N10 M89A, the ratio to parent in assay [2] amounted to 0.24. Substance “ER membrane-associated p97 of canine pancreas microsomes (natural protein)” had a percent of microsome-associated p97 lost by co-depletion with VIMP in assay [3] of less than 90%. Regarding GST-tagged VIMP-N10 K88A, the ratio to parent in assay [2] was 0.14. The same measure, in the same setting: then GST-tagged VIMP-N10 K77A, with 0.8; and GST-tagged VIMP-N10 L93A, with 0.17.
